In the series the target is T1, NT-L +278 VP16 (R23570V) (Xanthomonas sp. (engineered), UniProt P14727 SEQ:1-1013).
T1 chain: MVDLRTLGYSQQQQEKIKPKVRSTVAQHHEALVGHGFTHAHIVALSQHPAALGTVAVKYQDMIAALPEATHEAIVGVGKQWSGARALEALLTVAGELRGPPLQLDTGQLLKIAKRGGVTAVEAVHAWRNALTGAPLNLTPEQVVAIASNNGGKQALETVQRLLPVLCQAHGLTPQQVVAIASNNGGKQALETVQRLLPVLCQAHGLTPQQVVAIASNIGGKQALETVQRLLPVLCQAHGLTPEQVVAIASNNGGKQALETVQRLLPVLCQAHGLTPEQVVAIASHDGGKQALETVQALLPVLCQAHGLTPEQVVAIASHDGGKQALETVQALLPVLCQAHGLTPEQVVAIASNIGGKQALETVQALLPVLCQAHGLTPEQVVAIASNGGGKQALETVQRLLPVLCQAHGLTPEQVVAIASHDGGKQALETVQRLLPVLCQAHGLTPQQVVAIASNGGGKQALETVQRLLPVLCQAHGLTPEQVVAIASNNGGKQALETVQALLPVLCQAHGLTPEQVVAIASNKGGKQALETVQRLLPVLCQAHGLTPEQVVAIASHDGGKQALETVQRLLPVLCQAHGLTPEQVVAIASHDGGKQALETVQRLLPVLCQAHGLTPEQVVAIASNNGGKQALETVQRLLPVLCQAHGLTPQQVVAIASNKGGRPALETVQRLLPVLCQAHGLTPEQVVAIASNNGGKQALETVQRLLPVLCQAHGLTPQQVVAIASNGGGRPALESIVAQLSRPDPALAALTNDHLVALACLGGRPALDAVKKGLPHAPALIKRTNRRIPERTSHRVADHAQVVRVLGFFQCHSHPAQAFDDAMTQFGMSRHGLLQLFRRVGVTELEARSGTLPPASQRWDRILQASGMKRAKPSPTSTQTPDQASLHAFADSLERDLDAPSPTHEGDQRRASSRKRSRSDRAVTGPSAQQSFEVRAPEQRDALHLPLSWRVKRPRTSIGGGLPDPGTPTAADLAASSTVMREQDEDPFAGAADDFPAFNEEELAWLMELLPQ
The series is described as follows: cell_activity; luciferase reporter with 2 sites. As to conditions: tags: VP16. (Reporter assays use an easily measured gene product as a stand-in for the process of interest.)

Results on one molecule are retold here after patent US20110301073, “Novel DNA-binding proteins and uses thereof” (Sangamo BioSciences, Inc., published 2011).

B1: NT-L target (NTF3 promoter) (dsDNA)
DNA 1: GGAGCCATCTGGCCGGGT
DNA 2: ACCCGGCCAGATGGCTCC
In turn, B1 yielded an activity of 74.5 fold activation.
